Assay results as given in publication PMC4193804.

Experiments:
[1] = biological target: Hy.1B11 TCR with biotinylated C-terminal BirA tag (human); test: SPR
[2] = biological target: HLA-DQ1 (DQA1*0102, DQB1*0502), supplied as DQ1/CLIP for peptide-binding assays (human); test: ELISA
[3] = biological target: HLA-DQ1 (DQA1*0102, DQB1*0502) loaded with the myelin basic protein peptide (res. 85–99) (human); test: SPR

Row | Substance | Kd [1] [µM] | further results
1 | HLA-DQ1 (DQA1*0102, DQB1*0502) loaded with the Pseudomonas aeruginosa phosphomannomutase peptide PMM 260–274 (from UniProt P26276 260-274) (peptide-MHC) | 57.3 | –
2 | MBP 85–99 analogue peptide with P6 Asn to Asp substitution | – | fold higher affinity than the WT MBP peptide [2]: 10 fold
3 | HLA-DQ1 (DQA1*0102, DQB1*0502) loaded with the myelin basic protein peptide (res. 85–99) (peptide-MHC) | 6.96 | –
4 | Hy.1B11 T cell receptor (TCR), wild type, soluble | – | Kd [3]: 14.3 µM
